Measurements from PMC3261901.

Experiments:
[1] = target: Trypanosoma cruzi oligopeptidase B (OPBTc), recombinant, N-terminal His-tagged (Trypanosoma cruzi (CL Brener)); test: AUC; sedimentation velocity, 10 °C, OPBTc at 28.1, 8.4 and 1.8 µM in 25 mM Tris pH 8.0, 100 mM NaCl, 130,000 x g; c(s) analysis, s combined with the Stokes radius from SEC
[2] = target: Trypanosoma cruzi oligopeptidase B (OPBTc), recombinant, N-terminal His-tagged (Trypanosoma cruzi (CL Brener)); test: SEC; enzyme incubated at 28, 37, 42, 50 or 60°C for 20 min before the run; Superdex 200 10/300, 25 mM Tris-HCl pH 8.0; at 50 and 60°C a void-volume aggregate peak and a second peak of 160 kDa
[3] = target: Trypanosoma cruzi oligopeptidase B (OPBTc), recombinant, N-terminal His-tagged (Trypanosoma cruzi (CL Brener)); test: SEC; Superdex 200 10/300, 25 mM Tris-HCl pH 8.0, 200 mM NaCl, room temperature, calibrated with proteins of known Stokes radii; also run with 0.5 or 1.0 M NaCl (same elution, dimer not disrupted)

Measured: stoichiometry N

Trypanosoma cruzi oligopeptidase B (OPBTc), recombinant, N-terminal His-tagged (enzyme)
2: all assays above
